“And” between values parts separate entries of the source, which are not always exact repeats. Equal values may be shown once. Read-outs that look alike come from different tables or passages of the source.
Tests used:
[1] = cited from earlier work
amyloid-beta (Abeta) = molecular target: T1, amyloid-beta (Abeta) (Homo sapiens, UniProt P05067); assay: In vitro ligand binding ELISA, immobilized amyloid-beta; conditions: ligand 5 micrograms per well; fusion protein at increasing dilutions, 37° C. one hour
T1 construct: Amyloid Beta (1-40) from Biosource; purchased Biosource
Protocol: (§1) For example, the RAGE fusion protein may be used in a binding assay to identify potential RAGE ligands. In one example embodiment of such a binding assay, a known RAGE ligand may coated onto a solid substrate (e.g., Maxisorb plates) at a concentration of about 5 micrograms per well, where each well contains a total volume of about 100 microliters (4). The plates may be incubated at 4° C. overnight to allow the ligand to absorb or bind to the substrate. Alternatively, shorter incubation periods at higher temperature (e.g., room temperature) may be used. […] The RAGE fusion protein bound to the immobilized ligand may be detected in a variety of ways. […] The bound complex may be detected by adding the alkaline phosphatase substrate, para-nitrophenylphosphate (PNPP), and measuring conversion of PNPP to para-nitrophenol (PNP) as an increase in absorbance at 405 nm. […] In the absence of ligand (i.e., coating with only BSA) there was no increase in absorbance. […] Binding was detected by the addition of an immunodetection complex containing a monoclonal mouse anti-human IgG1 diluted 1:11,000 to a final assay concentration (FAC) of 21 ng/100 μL, a biotinylated goat anti-mouse IgG diluted 1:500, to a FAC of […], and an avidin-linked alkaline phosphatase. […]

S100b (S100) = molecular target: T2, S100b (S100) (Homo sapiens, UniProt P04271); assay: In vitro ligand binding ELISA, immobilized S100b; conditions: ligand 5 micrograms per well; fusion protein at increasing dilutions, 37° C. one hour
T2 sequence (P04271 1-92): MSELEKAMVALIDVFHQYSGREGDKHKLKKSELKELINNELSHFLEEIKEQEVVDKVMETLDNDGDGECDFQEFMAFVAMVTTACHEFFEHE
Protocol: as §1

amphoterin (Ampho) = molecular target: T3, amphoterin (Ampho) (Homo sapiens, UniProt P09429); assay: In vitro ligand binding ELISA, immobilized amphoterin; conditions: ligand 5 micrograms per well; fusion protein at increasing dilutions, 37° C. one hour
T3 sequence (P09429 1-215): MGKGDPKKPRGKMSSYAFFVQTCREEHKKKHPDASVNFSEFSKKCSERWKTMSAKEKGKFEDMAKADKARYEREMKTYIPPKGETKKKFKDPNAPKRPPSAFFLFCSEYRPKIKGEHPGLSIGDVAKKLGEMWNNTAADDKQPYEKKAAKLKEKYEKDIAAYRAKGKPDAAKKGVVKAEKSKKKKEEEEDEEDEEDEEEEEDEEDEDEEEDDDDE
Protocol: as §1

[2] = tested on: recurrent diabetes in syngeneic NOD transplant model; assay: Syngeneic islet transplantation in NOD mice; assay type: in vivo
Excerpt: Spontaneous autoimmune non-obese diabetic mice (NOD/LtJ) (12-25 weeks old) served as recipients for islet cells, while young pre-diabetic NOD/LtJ mice (6-7 weeks old) served as donors in syngeneic islet transplantation. Islets for transplantation were isolated as described above in Section A (Allogeneic Islet Transplantation). Diabetic NOD/LtJ mice received islet grafts within 2 days of the diagnosis of diabetes. 500-600 freshly isolated islets (approximately 550 islet equivalents) from donor mice were picked up with an infusion set and transplanted into the subcapular space of the right kidney. Test compounds were administered as soon as the islets were transplanted and continued for approximately 8 weeks. […] Islet graft function was monitored by serial blood glucose measurements daily for the first 2 weeks after islet transplantation, followed by every other day thereafter. Reversal of diabetes was defined as blood glucose less than 200 mg/dl on two consecutive measurements. Percentage graft loss was determined when blood glucose exceeded 250 mg/dl on two consecutive measurements.

[3] = normal and diabetic rats; cited from earlier work
mouse model of AD = assay: APP transgenic mouse model of AD; assay type: in vivo, mice; conditions: treated for 3 months, qod i.p.; versus vehicle and human IgG1
Protocol: Experiments were performed to evaluate whether TTP-4000 could affect amyloid formation and cognitive dysfunction in a mouse model of AD. The experiments utilized transgenic mice expressing the human Swedish mutant amyloid precursor protein (APP) under the control of the PDGF-B chain promoter. Over time, these mice generate high levels of the RAGE ligand, amyloid beta (Aβ).
The APP mice (male) used in this experiment were designed by microinjection of the human APP gene (with the Swedish and London mutations) into mouse eggs under the control of the platelet-derived growth factor B (PDGF-B) chain gene promoter. The mice were generated on a C57BL/6 background and were developed by Molecular Therapeutics Inc. Animals were fed ad libitum and maintained by brother sister mating. The mice generated from this construct develop amyloid deposits starting at 6 months of age. Animals were aged for 6 months and then maintained for 90 days and sacrificed for amyloid quantification.
APP transgenic mice were administered vehicle or TTP4000 every other day [qod (i.p.)] for 90 days starting at 6 months of age. At the end of the experiment, animals were sacrificed and examined for Aβ plaque burden in the brain (i.e., plaque number). A 6-month control APP group was used to determine the baseline of amyloid deposits. In addition, at the end of the study, the animals were subjected to behavioral (Morris water maze) analysis. The investigators were blinded to the study compounds. Samples were given to the mice at 0.25 ml/mouse/every other day.
For histological examination, the animals were anesthetized with an intraperitoneal injection (IP) of sodium pentobarbital (50 mg/kg). The animals were transcardially perfused with 4° C., phosphate-buffered saline (PBS) followed by 4% paraformaldehyde. The brains were removed and placed in 4% paraformaldehyde over night. The brains were processed to paraffin and embedded. Ten serial 30-μm thick sections through the brain were obtained. Sections were subjected to primary antibody overnight at 4° C. (Aβ peptide antibody) in order to detect the amyloid deposits in the brain of the transgenic animals (Guo et al., J. Neurosci., 22:5900-5909 (2002)). Sections were washed in Tris-buffered saline (TBS) and secondary antibody was added and incubated for 1 hour at room temperature. After washing, the sections were incubated as instructed in the Vector ABC Elite kit (Vector Laboratories) and stained with […] (DAB). The reactions were stopped in water and cover-slipped after treatment with xylene. The amyloid area in each section was determined with a computer-assisted image analysis system, consisting of a Power Macintosh computer equipped with a Quick Capture frame grabber card, Hitachi CCD camera mounted on an Olympus microscope and camera stand. NIH Image Analysis Software, v. 1.55 was used. The images were captured and the total area of amyloid was determined over the ten sections. A single operator blinded to treatment status performed all measurements. Summing the amyloid volumes of the sections and dividing by the total number of sections was done to calculate the amyloid volume.
For quantitative analysis, an enzyme-linked immunosorbent assay (ELISA) was used to measure the levels of human total Aβ, Aβtotal and Aβ1-42 in the brains of APP transgenic mice (Biosource International, Camarillo, Calif.). Aβtotal and Aβ1-42 were extracted from mouse brains by guanidine hydrochloride and quantified as described by the manufacturer. […]

[4] = 300 ug LD + 100 ug qod ip, syngeneic islets in NOD mice

T1 sequence (P05067 672-711 limits assumed): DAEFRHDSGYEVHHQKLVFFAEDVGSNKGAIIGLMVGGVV

In the case of “human sRAGE: human soluble RAGE (V, C1 and C2 domains)”, the half-life ([1]; assessed by retention of immunoreactivity sRAGE) is given as “less than 2 hours” and the half-life in plasma [1] is given as “about 2 hours”.

In the case of “sRAGE: soluble RAGE: the RAGE protein that does not include the transmembrane region or the cytoplasmic tail; species not stated at the place [reference compound]”, the half-life in plasma [1] is given as “only a few hours”.

B1: TTP-3000: three domain RAGE fusion protein: human RAGE N-terminal sequence (to position 136) linked to human IgG Fc (γ1) without hinge; SEQ ID NO: 35-37, 57 (protein)
chain: QNITARIGEPLVLKCKGAPKKPPQRLEWKLNTGRTEAWKVLSPQGGGPWDSVARVLPNGSLFLPAVGIQDEGIFRCQAMNRNGKETKSNYRVRVYQIPGKPEIVDSASELTAGPSVFLFPPKPKDTLMISRTPEVTCVVVDVSHEDPEVKFNWYVDGVEVHNAKTKPREEQYNSTYRVVSVLTVLHQDWLNGKEYKCKVSNKALPAPIEKTISKAKGQPREPQVYTLPPSRDELTKNQVSLTCLVKGFYPSDIAVEWESNGQPENNYKTTPPVLDSDGSFFLYSKLTVDKSRWQQGNVFSCSVMHEALHNHYTQKSLSLSPGK
modifications: non-natural residues
For B1, the “binding to immobilized amyloid-beta (increase in absorbance at 405 nm)” value (amyloid-beta (Abeta)) was “specifically interact”, the “binding to immobilized S100b (increase in absorbance at 405 nm)” value (S100b (S100)) was “specifically interact” and the “binding to immobilized amphoterin (increase in absorbance at 405 nm)” value (amphoterin (Ampho)) was “specifically interact”. The “day of graft loss for each animal” value [2, 4] was 42 days and 41 days and 34 days and 32 days and 30 days and 44 days and 46 days, the “day of graft loss, Mean” value [2, 4] was 38.43 days and the “time before detection of graft failure, in words” value ([2]; versus animals not treated at all) was “increase in the time before detection of graft failure”.

B2: rodent sRAGE: rodent soluble RAGE (protein, UniProt Q62151 23-340, looked up)
extracellular domain: GQNITARIGEPLVLSCKGAPKKPPQQLEWKLNTGRTEAWKVLSPQGGPWDSVARILPNGSLLLPATGIVDEGTFRCRATNRRGKEVKSNYRVRVYQIPGKPEIVDPASELTASVPNKVGTCVSEGSYPAGTLSWHLDGKLLIPDGKETLVKEETRRHPETGLFTLRSELTVIPTQGGTHPTFSCSFSLGLPRRRPLNTAPIQLRVREPGPPEGIQLLVEPEGGIVAPGGTVTLTCAISAQPPPQVHWIKDGAPLPLAPSPVLLLPEVGHEDEGTYSCVATHPSHGPQESPPVSIRVTETGDEGPAEGSVGESGLGTLA
modifications: extracellular domain
notes: rodent soluble RAGE
In the case of B2, the half-life [3] is given as “approximately 20 hours”.

B3: mouse sRAGE: mouse soluble RAGE used as comparator in the AD mouse model (protein, UniProt Q62151 23-340, looked up)
extracellular domain: GQNITARIGEPLVLSCKGAPKKPPQQLEWKLNTGRTEAWKVLSPQGGPWDSVARILPNGSLLLPATGIVDEGTFRCRATNRRGKEVKSNYRVRVYQIPGKPEIVDPASELTASVPNKVGTCVSEGSYPAGTLSWHLDGKLLIPDGKETLVKEETRRHPETGLFTLRSELTVIPTQGGTHPTFSCSFSLGLPRRRPLNTAPIQLRVREPGPPEGIQLLVEPEGGIVAPGGTVTLTCAISAQPPPQVHWIKDGAPLPLAPSPVLLLPEVGHEDEGTYSCVATHPSHGPQESPPVSIRVTETGDEGPAEGSVGESGLGTLA
modifications: extracellular domain
notes: mouse soluble RAGE used as comparator in the AD mouse model
With B3 the “Aβ plaques in the brain” value (mouse model of AD) was “fewer Aβ plaques” and the “cognitive dysfunction (Morris water maze)” value (mouse model of AD) was “less cognitive dysfunction”.
